Source: the Human Domainome abundance scans (Beltran et al. 2025)
± gives the uncertainty stated by the source.

B1: Poly(rC)-binding protein 1, residues 278 to 350; numbered along this chain, Q15365 (parent)
chain: TQTTHELTIPNNLIGCIIGRQGANINEIRQMSGAQIKIANPVEGSSGRQVTITGSAASISLAQYLINARLSSE
B2: Histidine--tRNA ligase, cytoplasmic, residues 8 to 45; numbered along this chain, P12081 (parent)
chain: EELVKLQGERVRGLKQQKASAELIEEEVAKLLKLKAQL

Variants of: B1
Assay: abundance fitness (aPCA) (normalised: wild type 0, dead -1); higher = more abundant; growth selection in yeast, the domain comes from the species named
Conditions: Homo sapiens

Variant	abundance fitness
T4W	-0.31 ± 0.063
T4H	-0.26 ± 0.13
T4R	-0.155 ± 0.041
T4M	-0.189 ± 0.073

Variants of: B2
Assay: as above
Conditions: Homo sapiens

Variant	abundance fitness
EELVKLQGERVRGLKQQKASAELIEEEVAKLLKLKAQV [L38V]	-0.209 ± 0.18
EELVKLQGERVRGLKQQKASAELIEEEVAKLLKLKAQS [L38S]	0.009 ± 0.093
EELVKLQGERVRGLKQQKASAELIEEEVAKLLKLKAQT [L38T]	0.034 ± 0.094
EELVKLQGERVRGLKQQKASAELIEEEVAKLLKLKAQW [L38W]	-0.154 ± 0.2
EELVKLQGERVRGLKQQKASAELIEEEVAKLLKLKAQH [L38H]	-0.012 ± 0.15
EELVKLQGERVRGLKQQKASAELIEEEVAKLLKLKAQQ [L38Q]	0.166 ± 0.1
EELVKLQGERVRGLKQQKASAELIEEEVAKLLKLKAQM [L38M]	0.193 ± 0.13
EELVKLQGERVRGLKQQKASAELIEEEVAKLLKLKAQD [L38D]	0.003 ± 0.26
EELVKLQGERVRGLKQQKASAELIEEEVAKLLKLKAQF [L38F]	-0.526 ± 0.12
EELVKLQGERVRGLKQQKASAELIEEEVAKLLKLKAQP [L38P]	-0.026 ± 0.08
EELVKLQGERVRGLKQQKASAELIEEEVAKLLKLKAQK [L38K]	0.14 ± 0.25
EELVKLQGERVRGLKQQKASAELIEEEVAKLLKLKAQR [L38R]	-0.067 ± 0.12
EELVKLQGERVRGLKQQKASAELIEEEVAKLLKLKAQI [L38I]	-0.389 ± 0.11
EELVKLQGERVRGLKQQKASAELIEEEVAKLLKLKAQE [L38E]	0.204 ± 0.11
EELVKLQGERVRGLKQQKASAELIEEEVAKLLKLKAQN [L38N]	-0.05 ± 0.19
EELVKLQGERVRGLKQQKASAELIEEEVAKLLKLKAQA [L38A]	0.15 ± 0.14
EELVKLQGERVRGLKQQKASAELIEEEVAKLVKLKAQL [L32V]	-0.076 ± 0.083
EELVKLQGERVRGLKQQKASAELIEEEVAKLSKLKAQL [L32S]	0.112 ± 0.09
EELVKLQGERVRGLKQQKASAELIEEEVAKLQKLKAQL [L32Q]	0.201 ± 0.095
EELVKLQGERVRGLKQQKASAELIEEEVAKLRKLKAQL [L32R]	0.096 ± 0.079
EELVKLQGERVRGLKQQKASAELIEEEVAKLTKLKAQL [L32T]	0.117 ± 0.13
EELVKLQGERVRGLKQQKASAELIEEEVAKLWKLKAQL [L32W]	-0.098 ± 0.1
EELVKLQGERVRGLKQQKASAELIEEEVAKLLKWKAQL [L34W]	-0.237 ± 0.088

Variant	abundance fitness
EELVKLQGERVRGLKQQKASAELIEEEVAKLLKHKAQL [L34H]	-0.06 ± 0.097
EELVKLQGERVRGLKQQKASAELIEEEVAKLLKRKAQL [L34R]	-0.151 ± 0.097
EELVKLQGERVRGLKQQKASAELIEEEVAKLLKFKAQL [L34F]	-0.148 ± 0.095
EELVKLQGERVRGLKQQKASAELIEEEVAKLLKDKAQL [L34D]	0.05 ± 0.12
EELVKLQGERVRGLKQQKASAELIEEEVAKLLKCKAQL [L34C]	-0.197 ± 0.078
EELVKLQGERVRGLKQQKASAELIEEEVAKLLKTKAQL [L34T]	-0.066 ± 0.091
EELVKLQGERVRGLKQQKASAELIEEEVAKLLKQKAQL [L34Q]	0.061 ± 0.11
EELVKLQGERVRGLKQQKASAELIEEEVAKLLKPKAQL [L34P]	0.209 ± 0.089
EELVKLQGERVRGLKQQKASAELIEEEVAKLLKIKAQL [L34I]	-0.176 ± 0.085
EELVKLQGERVRGLKQQKASAELIEEEVAKLLKAKAQL [L34A]	-0.054 ± 0.094
EELVKLQGERVRGLKQQKASAELIEEEVAKLLKVKAQL [L34V]	-0.064 ± 0.093
EELVKLQGERVRGLKQQKASAELIEEEVAKLLKGKAQL [L34G]	-0.128 ± 0.079
EELVKLQGERVRGLKQQKASAELIEEEVAKLLKKKAQL [L34K]	-0.1 ± 0.094
EELVKLQGERVRGLKQQKASAELIEEEVAKLLKMKAQL [L34M]	0.121 ± 0.12
EELVKLQGERVRGLKQQKASAELIEEEVAKLLKEKAQL [L34E]	0.083 ± 0.084
EELVKLQGERVRGLKQQKASAELIEEEVAKLLKYKAQL [L34Y]	-0.093 ± 0.093
EELVKLQGERVRGLKQQKASAELIEEEVAKLLKLNAQL [K35N]	0.597 ± 0.12
EELVKLQGERVRGLKQQKASAELIEEEVAKLLKLGAQL [K35G]	0.78 ± 0.098
EELVKLQGERVRGLKQQKASAELIEEEVAKLLKLIAQL [K35I]	-0.335 ± 0.096
EELVKLQGERVRGLKQQKASAELIEEEVAKLLKLEAQL [K35E]	0.193 ± 0.12
EELVKLQGERVRGLKQQKASAELIEEEVAKLLKLPAQL [K35P]	0.394 ± 0.087
EELVKLQGERVRGLKQQKASAELIEEEVAKLLKLWAQL [K35W]	-0.936 ± 0.26
EELVKLQGERVRGLKQQKASAELIEEEVAKLLKLVAQL [K35V]	0.271 ± 0.086

Variant	abundance fitness
EELVKLQGERVRGLKQQKASAELIEEEVAKLLKLTAQL [K35T]	0.392 ± 0.076
EELVKLQGERVRGLKQQKASAELIEEEVAKLLKLMAQL [K35M]	0.277 ± 0.11
EELVKLQGERVRGLKQQKASAELIEEEVAKLLKLSAQL [K35S]	0.611 ± 0.07
EELVKLQGERVRGLKQQKASAELIEEEVAKLLKLLAQL [K35L]	-0.051 ± 0.073
EELVKLQGERVRGLKQQKASAELIEEEVAKLLKLAAQL [K35A]	0.627 ± 0.1
EELVKLQGERVRGLKQQKASAELIEEEVAKLLKLFAQL [K35F]	-0.893 ± 0.11
EELVKLQGERVRGLKQQKASAELIEEEVAKLLKLYAQL [K35Y]	-0.518 ± 0.098
EELVKLQGERVRGLKQQKASAELIEEEVAKLLKLHAQL [K35H]	-0.532 ± 0.091
EELVKLQGERVRGLKQQKASAELIEEEVAKLLKLRAQL [K35R]	-0.005 ± 0.077
EELVKLQGERVRGLKQQKASAELIEEEVAKLLKLQAQL [K35Q]	0.414 ± 0.14
EELVKLQGERVRGLKQQKASAELIEEEVAKLLKLCAQL [K35C]	0.383 ± 0.09
EELVKLQGERVRGLKQQKASAELIEEEVAKLLKLDAQL [K35D]	0.227 ± 0.094
EELVKLQGERVRGLKQQKASAELIEEEVAKLLKLKAGL [Q37G]	0.191 ± 0.089
EELVKLQGERVRGLKQQKASAELIEEEVAKLLKLKAEL [Q37E]	0.28 ± 0.16
EELVKLQGERVRGLKQQKASAELIEEEVAKLLKLKATL [Q37T]	-0.113 ± 0.075
EELVKLQGERVRGLKQQKASAELIEEEVAKLLKLKAYL [Q37Y]	-0.532 ± 0.1
EELVKLQGERVRGLKQQKASAELIEEEVAKLLKLKAFL [Q37F]	-0.693 ± 0.16
EELVKLQGERVRGLKQQKASAELIEEEVAKLLKLKADL [Q37D]	0.119 ± 0.12
EELVKLQGERVRGLKQQKASAELIEEEVAKLLKLKARL [Q37R]	-0.143 ± 0.074
EELVKLQGERVRGLKQQKASAELIEEEVAKLLKLKAML [Q37M]	-0.02 ± 0.11
EELVKLQGERVRGLKQQKASAELIEEEVAKLLKLKALL [Q37L]	-0.164 ± 0.072
EELVKLQGERVRGLKQQKASAELIEEEVAKLLKLKASL [Q37S]	0.065 ± 0.076
EELVKLQGERVRGLKQQKASAELIEEEVAKLLKLKANL [Q37N]	-0.04 ± 0.11

Variant	abundance fitness
EELVKLQGERVRGLKQQKASAELIEEEVAKLLKLKACL [Q37C]	-0.057 ± 0.12
EELVKLQGERVRGLKQQKASAELIEEEVAKLLKLKAHL [Q37H]	-0.224 ± 0.097
EELVKLQGERVRGLKQQKASAELIEEEVAKLLKLKAPL [Q37P]	0.083 ± 0.077
EELVKLQGERVRGLKQQKASAELIEEEVAKLLKLKAKL [Q37K]	0.041 ± 0.091
EELVKLQGERVRGLKQQKASAELIEEEVAKLLKLKAIL [Q37I]	-0.29 ± 0.075
EELVKLQGERVRGLKQQKASAELIEEEVAKLLKLKAVL [Q37V]	-0.173 ± 0.093
EELVKLQGERVRGLKQQKASAELIEEEVAKLLKLKAAL [Q37A]	0.152 ± 0.089
EELVKLQGERVRGLKQQKASAELIEEEVAKLLILKAQL [K33I]	-0.407 ± 0.14
EELVKLQGERVRGLKQQKASAELIEEEVAKLLGLKAQL [K33G]	-0.147 ± 0.089
EELVKLQGERVRGLKQQKASAELIEEEVAKLLALKAQL [K33A]	-0.081 ± 0.11
EELVKLQGERVRGLKQQKASAELIEEEVAKLLVLKAQL [K33V]	-0.436 ± 0.083
EELVKLQGERVRGLKQQKASAELIEEEVAKLLRLKAQL [K33R]	-0.109 ± 0.075
EELVKLQGERVRGLKQQKASAELIEEEVAKLLYLKAQL [K33Y]	-0.313 ± 0.1
EELVKLQGERVRGLKQQKASAELIEEEVAKLLTLKAQL [K33T]	-0.093 ± 0.095
EELVKLQGERVRGLKQQKASAELIEEEVAKLLCLKAQL [K33C]	-0.451 ± 0.093
EELVKLQGERVRGLKQQKASAELIEEEVAKLLQLKAQL [K33Q]	0.037 ± 0.1
EELVKLQGERVRGLKQQKASAELIEEEVAKLLELKAQL [K33E]	0.226 ± 0.13
EELVKLQGERVRGLKQQKASAELIEEEVAKLLPLKAQL [K33P]	-0.056 ± 0.097
EELVKLQGERVRGLKQQKASAELIEEEVAKLLLLKAQL [K33L]	-0.34 ± 0.083
EELVKLQGERVRGLKQQKASAELIEEEVAKLLNLKAQL [K33N]	-0.203 ± 0.26
EELVKLQGERVRGLKQQKASAELIEEEVAKLLHLKAQL [K33H]	-0.039 ± 0.084
EELVKLQGERVRGLKQQKASAELIEEEVAKLLSLKAQL [K33S]	0.071 ± 0.074
EELVKLQGERVRGLKQQKASAELIEEEVAKLLFLKAQL [K33F]	-0.338 ± 0.11
